Results taken from patent US20100111995A1.

Molecular target: CCR5 expressed on the cell surface (CEM.NKR-CCR5 cells; stimulated CD4+ T cells; CEM 5.25.EGFP.luc.M7 cells) (human) (UniProt P51681)
Assay: cell-based or functional assay

RANTES (from UniProt P13501 24-91) (ligand)
Antibody concentrations inhibiting HIV, 50% inhibition: 5.8 ng/mL
Antibody concentrations inhibiting HIV, 70% inhibition: 14.7 ng/mL
